According to patent US20070014736A1, “Methods of delivering corticotroph-derived glycoprotein hormone” (priority 2005, published 2007):

Key:
[1] = test system: lipolysis in mice; assay: Stimulation of lipolysis in vivo, serum glycerol and FFA; conditions: fasted mice, IP; CGH 300 μg/kg, CL 1 mg/kg
Experimental: CGH, the β3-adrenoreceptor agonist CL 316,243 (CL), and saline vehicle were examined for stimulation of lipolysis in mice following an overnight fast. […] Lipolysis was assessed as the percent change in serum glycerol or FFA over the 2 hour period. The serum glycerol and FFA for the vehicle groups decreased by 7%±9% and 24%±15%, respectively. The serum glycerol for the CGH group increased by 57%±20%; p=0.0254, and the FFA levels increased 25%±5%; p=0.0188.
C57 BL/6 male mice, age 19 weeks, were grouped to normalize weight (n=4 for each treatment; average group weight=37.8 g±0.4 g). Mice were housed individually for 18 hours prior to treatment, at which time food was withdrawn, with free access to water given. At approximately 8 a.m., the subjects were anesthetized with halothane and blood samples taken by retro-orbital eye bleed. The blood was allowed to clot, and the serum was separated by centrifugation and frozen for later analysis. Test substances were administered by IP injection in a volume of 0.1 ml, and the animals replaced in their cages for 2 hours with free access to water. At 2 hours, the mice were sacrificed and blood drawn by cardiac puncture.
For measuring free fatty acids in serum, the method previously described for measuring free fatty acids in conditioned media was followed, with the following modifications. Wako reagents A and B were reconstituted to 2× the recommended concentration. 75 μl of Wako reagent A were added to 5 μl of oleic acid standard plus 5 μl of water. 75 μl of Wako reagent A were added to 5 μl of serum plus 5 μl of methanol (to mirror the oleic acid standard conditions). The 96-well plates were incubated at 37° C. for 10 minutes. 150 μl of Wako reagent B were added to each well. The 96-well plates were incubated at 37° C. for 10 minutes. The 96-well plates were allowed to sit at room temperature for 5 minutes. The 96-well plates were centrifuged in a Beckman Coulter Allegra 6R centrifuge at 3250×g for 5 minutes to remove air bubbles. The absorbance at 530 nm was measured on the Wallac Victor2 Multilabel counter.
For measuring glycerol in serum, the method previously described for measuring glycerol in conditioned media was followed, with the modifications described below.
Sigma reagent A was reconstituted to 0.5× the recommended concentration. 200 μl of Sigma reagent A were added to 10 μl of glycerol standard. 200 μl of Sigma reagent A were added to 5 μl of serum plus 5 μI of water. The 96-well plates were incubated for 15 minutes at room temperature. The 96-well plates were centrifuged in a Beckman Coulter Allegra 6R centrifuge at 3250×g for 5 minutes to remove air bubbles. The absorbance at 530 nm was measured on the Wallac Victor2 Multilabel counter.

[2] = test system: neutrophil infiltration in the ears; assay: Neutrophil (Gr-1) histomorphometry of ears in DTH experiment #1; assay type: in vivo, mice
Experimental: Ears from mice in DTH experiment #1 were analyzed by immunohistochemistry to assess which cell types were most affected by CGH treatment. Ears were fixed in Zinc/Tris buffer (2.3 mM calcium acetate/31.6 mM zinc acetate/36.7 mM zinc chloride in 0.1M Tris-HCL buffer, pH 7.4) for 24 hours at room temperature and stained with antibodies specific for CD4, CD8, CD11c, and Gr-1 (neutrophils). […] Ears were stained using a TechMate 500 autoimmunostainer (Biotech/Ventana) MIP protocol with some modifications. […] This step was followed, after a wash, by biotinylated rabbit anti-rat IgG secondary antibody (Dako, used at 10 ug/ml in PBS with 2% normal rabbit serum and 2% nonfat dry milk) for 45 min. The sections were then washed and treated with HP Block (1.5% H2O2 in 50% methanol) 3 times, 7 min each, followed by 25 min in avidin-biotin complex, 3 times of 4 min each in DAB (Diaminobenzidine), then with Methyl green for 10 min.
From this staining procedure, there was a clear reduction in the number of neutrophils infiltrating the ears of those mice treated with CGH or Dex, compared to the PBS-treated controls. Histomorphometry was performed to obtain the average pixel density of neutrophils per unit length (1 mm) present in the ear samples. Despite a fair amount of variability among each group, there was a significant reduction in neutrophil staining in the Dex and low dose CGH groups, as well as a nearly significant (p=0.0507) reduction in the high dose CGH group (see TABLE 5, p values).

[3] = 0.2 mg/kg CGH i.p. at challenge (day 7)
[4] = 2 mg/kg CGH i.p. at challenge (day 7)

B1: CGH: heterodimeric protein hormone comprised of alpha subunit GPHA2 and beta subunit GPHB5, recombinantly produced in CHO cells (protein)
chain 1: QEAVIPGCHLHPFNVTVRSDRQGTCQGSHVAQACVGHCESSAFPSRYSVLVASGYRHNITSVSQCCTISGLKKVKVQLQCVGSRREELEIFTARACQCDMCRLSRY
chain 2: ASSGNLRTFVGCAVREFTFLAKKPGCRGLRITTDACWGRCETWEKPILEPPYIEAHHRVCTYNETKQVTVKLPNCAPGVDPFYTYPVAIRCDCGACSTATTECETI
- percent change (increase) in serum FFA over 2 hours [1]: 25%±5%
- percent change (increase) in serum glycerol over 2 hours [1]: 57%±20%
- Pixel density: Neutrophils, left ear (PBS) [2, 3]: 544 +/− 1044
- Pixel density: Neutrophils, right ear (OVA) [2, 3]: 5605 +/− 3725
- Pixel density: Neutrophils, left ear (PBS) [2, 4]: 273 +/− 399
- Pixel density: Neutrophils, right ear (OVA) [2, 4]: 5535 +/− 5331
